# Measured values from paper PMC10397247.
# Read-outs that look alike come from different tables or passages of the source.
# Legend:
# [1] = target: T1, 4H491-bN; experiment: two-hybrid library CCNG1;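 also: natural log of median RNA to DNA barcode read ratio; higher means stronger binding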
# T1 chain: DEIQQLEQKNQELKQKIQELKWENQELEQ
# [2] = target: T2, P4bH1; experiment: two-hybrid library CCNG1;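 also: natural log of median RNA to DNA barcode read ratio; higher means stronger binding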
# T2 chain: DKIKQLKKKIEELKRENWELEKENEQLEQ
# [3] = target: T3, 4H4038-bN; experiment: two-hybrid library CCNG1;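 also: natural log of median RNA to DNA barcode read ratio; higher means stronger binding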
# T3 chain: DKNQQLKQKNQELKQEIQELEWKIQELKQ
# [4] = target: T4, 4H3961-bN; experiment: two-hybrid library CCNG1;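 also: natural log of median RNA to DNA barcode read ratio; higher means stronger binding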
# T4 chain: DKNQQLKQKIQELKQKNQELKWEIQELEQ
# [5] = target: T5, 4H3907-bN; experiment: two-hybrid library CCNG1;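 also: natural log of median RNA to DNA barcode read ratio; higher means stronger binding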
# T5 chain: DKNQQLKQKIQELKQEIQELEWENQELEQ
# [6] = target: T6, 4H470-bN; experiment: two-hybrid library CCNG1;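 also: natural log of median RNA to DNA barcode read ratio; higher means stronger binding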
# T6 chain: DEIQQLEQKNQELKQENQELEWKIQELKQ
# [7] = target: T7, P6SC1; experiment: two-hybrid library CC1; settings: mean of both orientations
# T7 chain: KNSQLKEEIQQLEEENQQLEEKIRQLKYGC
# [8] = target: T8, P5; experiment: two-hybrid library CC1
# T8 chain: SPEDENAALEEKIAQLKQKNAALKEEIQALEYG
# [9] = target: T9, P8mS; experiment: two-hybrid library CC1; settings: mean of both orientations
# T9 chain: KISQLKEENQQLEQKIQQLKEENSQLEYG
# [10] = target: T10, P5mS; experiment: two-hybrid library CC1; settings: mean of both orientations
# T10 chain: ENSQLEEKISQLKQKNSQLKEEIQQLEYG
# [11] = target: T11, P9; experiment: two-hybrid library CC1; settings: mean of both orientations
# T11 chain: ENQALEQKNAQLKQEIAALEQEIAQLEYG
# [12] = target: T12, P6mS; experiment: two-hybrid library CC1; settings: mean of both orientations
# T12 chain: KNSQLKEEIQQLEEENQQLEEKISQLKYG
# [13] = target: T13, P5SC2; experiment: two-hybrid library CC1; settings: mean of both orientations
# T13 chain: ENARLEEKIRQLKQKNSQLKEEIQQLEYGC
# [14] = target: T14, P6; experiment: two-hybrid library CC1; settings: mean of both orientations
# T14 chain: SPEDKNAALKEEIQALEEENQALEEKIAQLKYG
# [15] = target: T15, P7; experiment: two-hybrid library CC1; settings: mean of both orientations
# T15 chain: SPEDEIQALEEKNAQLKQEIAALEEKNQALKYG
# [16] = target: T16, P6SC2; experiment: two-hybrid library CC1; settings: mean of both orientations
# T16 chain: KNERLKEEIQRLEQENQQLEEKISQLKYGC
# [17] = target: T17, P5SC1; experiment: two-hybrid library CC1; settings: mean of both orientations
# T17 chain: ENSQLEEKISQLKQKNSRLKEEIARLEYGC
# [18] = target: T18, P7mS; experiment: two-hybrid library CC1; settings: mean of both orientations
# T18 chain: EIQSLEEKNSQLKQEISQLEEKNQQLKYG
# [19] = target: T19, P8; experiment: two-hybrid library CC1; settings: mean of both orientations
# T19 chain: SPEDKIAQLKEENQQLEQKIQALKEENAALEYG
# [20] = target: T20, 4H3619-AA; experiment: two-hybrid library CCmax; settings: mean of both orientations
# T20 chain: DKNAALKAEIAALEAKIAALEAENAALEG
# [21] = target: T21, 4H2580-AA; experiment: two-hybrid library CCmax; settings: mean of both orientations
# T21 chain: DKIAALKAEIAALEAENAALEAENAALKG
# [22] = target: T22, 4H432-AA; experiment: two-hybrid library CCmax; settings: mean of both orientations
# T22 chain: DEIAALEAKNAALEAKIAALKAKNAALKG
# [23] = target: T23, 4H3629-AA; experiment: two-hybrid library CCmax; settings: mean of both orientations
# T23 chain: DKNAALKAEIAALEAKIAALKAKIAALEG
# [24] = target: T24, 4H2961-AA; experiment: two-hybrid library CCmax; settings: mean of both orientations
# T24 chain: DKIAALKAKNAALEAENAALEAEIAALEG
# [25] = target: T25, 4H3915-AA; experiment: two-hybrid library CCmax; settings: mean of both orientations
# T25 chain: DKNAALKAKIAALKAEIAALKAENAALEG
# [26] = target: T26, 4H2947-AA; experiment: two-hybrid library CCmax; settings: mean of both orientations
# T26 chain: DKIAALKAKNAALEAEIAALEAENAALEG
# [27] = target: T27, 4H3974-AA; experiment: two-hybrid library CCmax; settings: mean of both orientations
# T27 chain: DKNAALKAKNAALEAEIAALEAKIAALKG
# [28] = target: T28, 4H3049-AA; experiment: two-hybrid library CCmax; settings: mean of both orientations
# T28 chain: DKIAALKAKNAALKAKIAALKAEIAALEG
# [29] = target: T29, 4H2604-AA; experiment: two-hybrid library CCmax; settings: mean of both orientations
# T29 chain: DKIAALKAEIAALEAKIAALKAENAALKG
# [30] = target: T30, 4H235-AA; experiment: two-hybrid library CCmax; settings: mean of both orientations
# T30 chain: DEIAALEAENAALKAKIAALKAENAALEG
# [31] = target: T31, 4H249-AA; experiment: two-hybrid library CCmax; settings: mean of both orientations
# T31 chain: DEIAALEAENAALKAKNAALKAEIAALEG
# [32] = target: T32, 4H2774-AA; experiment: two-hybrid library CCmax; settings: mean of both orientations
# T32 chain: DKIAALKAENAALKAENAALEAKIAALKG
# [33] = target: T33, 4H324-AA; experiment: two-hybrid library CCmax; settings: mean of both orientations
# T33 chain: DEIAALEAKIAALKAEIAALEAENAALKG
# [34] = target: T34, 4H3094-AA; experiment: two-hybrid library CCmax; settings: mean of both orientations
# T34 chain: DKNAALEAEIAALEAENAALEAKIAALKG
# [35] = target: T35, 4H2621-AA; experiment: two-hybrid library CCmax; settings: mean of both orientations
# T35 chain: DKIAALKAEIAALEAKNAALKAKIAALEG
# [36] = target: T36, 4H380-AA; experiment: two-hybrid library CCmax; settings: mean of both orientations
# T36 chain: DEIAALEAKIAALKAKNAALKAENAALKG
# [37] = target: T37, 4H3777-AA; experiment: two-hybrid library CCmax; settings: mean of both orientations
# T37 chain: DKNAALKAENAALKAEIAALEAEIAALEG
# [38] = target: T38, 4H1878-AA; experiment: two-hybrid library CCmax
# T38 chain: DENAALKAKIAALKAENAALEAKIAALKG
# [39] = target: T39, 4H341-AA; experiment: two-hybrid library CCmax; settings: mean of both orientations
# T39 chain: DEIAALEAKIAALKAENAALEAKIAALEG
# [40] = target: T40, 4H2760-AA; experiment: two-hybrid library CCmax; settings: mean of both orientations
# T40 chain: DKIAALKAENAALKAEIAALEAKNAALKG
# [41] = target: T41, 4H63-AA; experiment: two-hybrid library CCmax
# T41 chain: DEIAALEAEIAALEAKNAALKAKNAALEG
# [42] = target: T42, 4H2903-AA; experiment: two-hybrid library CCmax; settings: mean of both orientations
# T42 chain: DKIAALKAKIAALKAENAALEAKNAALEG
# [43] = target: T43, 4H3449-AA; experiment: two-hybrid library CCmax; settings: mean of both orientations
# T43 chain: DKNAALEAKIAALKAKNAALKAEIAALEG
# [44] = target: T44, 4H446-AA; experiment: two-hybrid library CCmax; settings: mean of both orientations
# T44 chain: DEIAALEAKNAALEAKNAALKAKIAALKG
# [45] = target: T45, P4A-bH; experiment: two-hybrid library CCNG1
# T45 chain: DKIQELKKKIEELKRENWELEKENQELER
# [46] = target: T46, P6A-bH; experiment: two-hybrid library CCNG1
# T46 chain: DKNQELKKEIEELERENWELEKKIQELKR
# [47] = target: T47, P8A-bH; experiment: two-hybrid library CCNG1
# T47 chain: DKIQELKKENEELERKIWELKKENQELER
# [48] = target: T48, P9A-bH; experiment: two-hybrid library CCNG1
# T48 chain: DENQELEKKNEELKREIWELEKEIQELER
# [49] = target: T49, P5A-bH; experiment: two-hybrid library CCNG1
# T49 chain: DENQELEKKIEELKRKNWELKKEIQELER
# [50] = target: T50, P7A-bH; experiment: two-hybrid library CCNG1
# T50 chain: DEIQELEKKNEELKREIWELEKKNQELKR
# [51] = target: T51, 4H464-AA; experiment: two-hybrid library CCmax; settings: mean of both orientations
# T51 chain: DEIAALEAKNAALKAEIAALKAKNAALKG
# [52] = target: T52, 4H3969-AA; experiment: two-hybrid library CCmax; settings: mean of both orientations
# T52 chain: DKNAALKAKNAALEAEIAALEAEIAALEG
# [53] = target: T53, 4H483-AA; experiment: two-hybrid library CCmax; settings: mean of both orientations
# T53 chain: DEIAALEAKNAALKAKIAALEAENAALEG
# [54] = target: T54, 4H1913-AA; experiment: two-hybrid library CCmax
# T54 chain: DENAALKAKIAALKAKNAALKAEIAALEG
# [55] = target: T55, 4H2728-AA; experiment: two-hybrid library CCmax; settings: mean of both orientations
# T55 chain: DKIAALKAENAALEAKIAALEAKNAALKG
# [56] = target: T56, 4H3782-AA; experiment: two-hybrid library CCmax; settings: mean of both orientations
# T56 chain: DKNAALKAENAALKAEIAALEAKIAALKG
# [57] = target: T57, 4H3129-AA; experiment: two-hybrid library CCmax
# T57 chain: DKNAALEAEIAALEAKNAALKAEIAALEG
# [58] = target: T58, 4H3939-AA; experiment: two-hybrid library CCmax; settings: mean of both orientations
# T58 chain: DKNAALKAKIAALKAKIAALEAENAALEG
# [59] = target: T59, 4H3595-AA; experiment: two-hybrid library CCmax; settings: mean of both orientations
# T59 chain: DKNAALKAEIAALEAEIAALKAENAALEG
# [60] = target: T60, 4H2699-AA; experiment: two-hybrid library CCmax; settings: mean of both orientations
# T60 chain: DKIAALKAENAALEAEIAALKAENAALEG
# [61] = target: T61, 4H3414-AA; experiment: two-hybrid library CCmax; settings: mean of both orientations
# T61 chain: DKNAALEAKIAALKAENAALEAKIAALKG
binder,measurement,setting,value
DEIQQLEQKNQELKQKIQELKWENQELEQ [4H491-bN],interaction score,[1],-0.336
same,interaction score,[2],-0.336
DKNQQLKQKIQELKQEIQELEWENQELEQ [4H3907-bN],interaction score,[3],-2.02
same,interaction score,[4],-1.64
same,interaction score,[5],-1.04
same,interaction score,[6],-1.7
SPEDENAALEEKIAQLKQKNAALKEEIQALEYG [P5],interaction score,[7],0.186
same,interaction score,[8],-2.89
same,interaction score,[9],-2.62
same,interaction score,[10],-2.94
same,interaction score,[11],-2.12
same,interaction score,[12],0.1
same,interaction score,[13],-2.84
same,interaction score,[14],0.207
same,interaction score,[15],-2.59
same,interaction score,[16],0.252
same,interaction score,[17],-2.93
same,interaction score,[18],-2.8
same,interaction score,[19],-1.39
DENAALKAKIAALKAENAALEAKIAALKG [4H1878-AA],interaction score,[20],-0.661
same,interaction score,[21],-0.744
same,interaction score,[22],-0.557
same,interaction score,[23],1.63
same,interaction score,[24],-1.54
same,interaction score,[25],-1.7
same,interaction score,[26],-0.843
same,interaction score,[27],-1.23
same,interaction score,[28],-0.448
same,interaction score,[29],-0.964
same,interaction score,[30],0.899
same,interaction score,[31],1.34
same,interaction score,[32],-1.27
same,interaction score,[33],0.44
same,interaction score,[34],1.41
same,interaction score,[35],2.05
same,interaction score,[36],-0.854
same,interaction score,[37],-1.54
same,interaction score,[38],0.691
same,interaction score,[39],0.00503
same,interaction score,[40],1.48
same,interaction score,[41]; mean of both orientations,1.51
same,interaction score,[42],-0.956
same,interaction score,[43],1.63
same,interaction score,[44],-1.08
DKNQQLKQKNQELKQEIQELEWKIQELKQ [4H4038-bN],interaction score,[3],-0.153
DKIQELKKKIEELKRENWELEKENQELER [P4A-bH],interaction score,[45],-1.38
same,interaction score,[46],-2.06
same,interaction score,[47],0.0606
same,interaction score,[48],-0.144
same,interaction score,[49],-0.285
same,interaction score,[50],-0.412
DENAALKAKIAALKAKNAALKAEIAALEG [4H1913-AA],interaction score,[21],0.453
same,interaction score,[51],-0.535
same,interaction score,[52],-0.832
same,interaction score,[53],-1.02
same,interaction score,[23],-1.21
same,interaction score,[24],-1.61
same,interaction score,[28],-1.85
same,interaction score,[31],-1.83
same,interaction score,[32],-0.0687
same,interaction score,[54],-1.12
same,interaction score,[55],0.365
same,interaction score,[56],-1.16
same,interaction score,[35],-0.536
same,interaction score,[36],-2.69
same,interaction score,[39],0.862
same,interaction score,[41],-0.87
same,interaction score,[42],-1.62
same,interaction score,[44],-1.42
same,interaction score,[57],-0.895
same,interaction score,[58],-1.9
same,interaction score,[59],-1.29
same,interaction score,[60],-0.293
same,interaction score,[61],1.8
DENQELEKKIEELKRKNWELKKEIQELER [P5A-bH],interaction score,[46],1.49
same,interaction score,[47],1.32
same,interaction score,[48],-0.708
same,interaction score,[49],-1.13
same,interaction score,[50],-0.756
